{"source": "patent US9073982B2", "about": "“Targets for regulation of angiogenesis” (The University of North Carolina at Chapel Hill, priority 2008, dated 2015)", "molecules": {"B1": {"name": "SFRP2: mouse recombinant SFRP2 (US Biologicals), secreted frizzled-related protein 2 (protein)", "chain": "LFLFGQPDFSYKRSNCKPIPANLQLCHGIEYQNMRLPNLLGHETMKEVLEQAGAWIPLVMKQCHPDTKKFLCSLFAPVCLDDLDETIQPCHSLCVQVKDRCAPVMSAFGFPWPDMLECDRFPQDNDLCIPLASSDHLLPATEEAPKVCEACKTKNEDDNDIMETLCKNDFALKIKVKEITYINRDTKIILETKSKTIYKLNGVSERDLKKSVLWLKDSLQCTCEEMNDINAPYLVMGQKQGGELVITSVKRWQKGQREFKRISRSIRKLQC"}}, "key": {"NFATc3": {"tested_on": "NFATc3", "assay": "Western blot for nuclear NFATc3 in MEC cells", "assay_type": "cell-based, mouse", "conditions": "SFRP2 700 pM", "description": "To evaluate the role of the non-canonical Wnt/Ca^++ pathway in SFRP2 induced angiogenesis, nuclear dephosphorylated NFATc3 protein levels were compared in control and SFRP2-treated endothelial cells. MEC cells were plated in 12-well plates and allowed to attach overnight. The next day, the media was changed and added to the wells with and without SFRP2 (700 pM). Cells were incubated for 1, 2, 4, 8 and 16 hours, and the nuclear proteins were extracted by using NE-PER™ nuclear and cytoplasmic extraction reagent from PIERCE (Pierce Biotechnology) as described in the manufacturer's manual. The Western blot analysis was performed using standard methods, with primary antibody to the dephosphorylated (active) β-catenin antibody or NFATc3."}, "C57BL/6 mice": {"tested_on": "C57BL/6 mice", "assay": "Mouse MATRIGEL plug angiogenesis assay", "assay_type": "in vivo", "description": "The ability of mouse recombinant SFRP2 would stimulate angiogenesis in a mouse MATRIGEL plug angiogenesis assay was evaluated. Female C57BL/6 mice (8 weeks old) were injected s.c. with 0.5 ml of growth factor reduced basement membrane matrix (MATRIGEL) containing either mouse recombinant SFRP2 (800 ng/ml) with 30 U/ml heparin or PBS with 30 U/ml heparin for negative control. Seven days later the mice were sacrificed and the MATRIGEL plugs removed and evaluated for angiogenesis by hemoglobin concentration with the Drabkin's reagent."}, "[1]": {"tested_on": "chick chorioallantoic membrane", "assay": "Chick chorioallantoic membrane (CAM) assay", "assay_type": "in vivo, chicken", "conditions": "100 ng per disk, evaluated day 3 after disk placement", "description": "On day 4, the eggs were cracked into sterile Petri dishes and incubated at 99° F. in 3% CO2, 65% humidity. For application of drug onto the CAM, Whatman grade 1 filter paper was cut into circles with a 6 mm diameter paper punch and autoclaved. To decrease inflammatory effects of the disk, the discs were soaked in 1 ml of 3.0 mg/ml cortisone acetate in absolute ETOH and air dried for 60 min in a laminar flow hood. On day 8, 5 disks per egg were placed on the outer third of the CAM, 2-3 mm from a vessel. Control PBS 7 μl was added to the discs for the control CAMs, and SFRP2 100 ng/7 μl PBS was added to the disks for the treated CAMs (n=5 control disks and 5 SFRP2-treated disks). The CAMs were evaluated under a stereomicroscope on day 3 after disk placement. Pictures were taken with a Wild M-4 70 Macrosystem, and angiogenesis was quantified using Metamorph Software with an angiogenesis module.\nFertilized chickens eggs (NC State University Chicken Research Faint) were incubated at 100.4° F. in an egg turner (Model#1588 Genesis Hova-Bator, GQF Mfg. Co., Inc.) for 3 days. […] CAMs were evaluated under a stereomicroscope on day 3 after disk placement. Pictures were taken with a Wild M-4 70 Macrosystem and angiogenesis was quantified using Metamorph Software with an angiogenesis module."}, "[2]": {"tested_on": "mouse endothelial cells (MEC)", "assay": "Endothelial cell tube formation assay, MEC cells", "assay_type": "cell-based", "conditions": "SFRP2 concentration range, 8 hours", "description": "The tube formation properties of SFRP2 on mouse endothelial cells (MEC) cells were evaluated using an endothelial cell tube formation assay. ECMATRIX (Chemicon) was thawed, diluted and solidified in a 96 well plate according to the manufacturer's instructions. 1×10^4 cells/well in 150 μl of DMEM (celigro) with 10% FBS (HyClone) and a concentration range (7-7000 pM) of SFRP2 (US Biologicals) were seeded onto the matrix and returned to 37° C., 5% CO2 for 8 hours. Images were acquired using the Nikon Eclipse TS100 microscope at 4× magnification with a Nikon CoolPix 995 digital camera. Results were quantified by counting the number of branch points.\nTo evaluate whether tacrolimus inhibits SFRP2 induced tube formation, MEC cells were treated as above with SFRP2 7 nM with and without tacrolimus 100 uM for 8 hours and branch points were determined as described above. To evaluate whether tacrolimus reversed established tubes, cells were incubated with SFRP2 7 nM for 8 hours and then BSA or tacrolimus 100 μM was added to SFRP2 treated cells for an additional 4 hours, and then the number of branch points were counted. […] Tacrolimus was not cytotoxic to MEC cells, as only 5% of tacrolimus-treated cells took up trypan blue dye (data not shown).\nThe tube formation properties of SFRP2 on MEC cells were evaluated using an endothelial cell tube formation assay. ECMATRIX (Chemicon) was thawed, diluted and solidified in a 96 well plate according to the manufactures instructions. 1×10^4 cells/well in 150 μl of DMEM (cellgro) with 10% FBS (HyClone) and a concentration range (3-3000 pM) of SFRP2 (US Biologicals) were seeded onto the matrix and returned to 37° C., 5% CO2 for 8 hours. Images were acquired using the Nikon Eclipse TS100 microscope at 4× magnification with a Nikon CoolPix 995 digital camera. Results were quantified by counting the number of branch point. To evaluate whether tacrolimus inhibits SFRP2 induced tube formation, MEC cells were treated as above with SFRP2 30 nM with and without tacrolimus (1 μM-100 uM) for 8 hours and branch points were determined as described above. To evaluate whether inhibitors of SFRP2-mediated angiogenesis would inhibit the growth of SVR tumor cells, SVR cells were treated with tacrolimus (1 μM-100 μM) or with a rabbit polyclonal antibody to SFRP-2 (H-140) (Santa Cruz Biotechnology, Santa Cruz, Calif., catalogue 4 sc-13940) in the tube formation assay."}, "[3]": {"tested_on": "mouse endothelial cells (MEC)", "assay": "Scratch wound assay on mouse endothelial cells", "assay_type": "cell-based", "conditions": "SFRP2 0.7 pM-700 pM, 16 to 32 hours", "description": "The migration properties of SFRP2 on mouse endothelial cells (MEC) cells were evaluated using a scratch wound assay. Mouse endothelial cells were plated at 10,000 cells/well into a 96 well plate and allowed to become confluent in DMEM with 10% FBS. The cells were quiesced in DMEM without serum for 18 hours. The wound was formed using a 1 ml pipette tip and a 0.7 pM-700 pM dose curve of mouse recombinant SFRP2 (US Biologicals, Swampscott) was added to the cells. Each concentration was performed in triplicate and the experiment was repeated three times with similar results. Migration was measured from 16 to 32 hours. Migration distance was measured at each time point. Statistical differences between SFRP2 and control were evaluated with an unpaired two-tailed Student's t-test, with p<0.05 being significant."}}, "note": "Entries after “also recorded” stand apart in the source; their conditions may differ.", "data": [{"molecule": "B1", "values": [{"measurement": "nuclear NFATc3 level", "setting": "NFATc3", "value": "increased at 30 minutes in the nuclear fraction"}, {"measurement": "hemoglobin content of plugs, increase compared with the vehicle control", "setting": "C57BL/6 mice; SFRP2 800 ng/ml with heparin, s.c., seven days", "value": 3.3, "unit": "fold"}, {"measurement": "angiogenesis in the mouse MATRIGEL plug assay", "setting": "C57BL/6 mice; mouse, in vivo", "value": "induces angiogenesis"}, {"measurement": "angiogenesis on the CAM (branch points, segments, tube area, tube length)", "setting": "[1]", "value": "induced angiogenesis on the CAM; also recorded: induces angiogenesis on the chorioallantoic membrane"}, {"measurement": "endothelial tube formation (branch points)", "setting": "[2]", "value": "induced by SFRP2 in a concentration-dependent manner; also recorded: induces endothelial tube formation at 8 hours in a concentration-dependent manner"}, {"measurement": "endothelial cell migration", "setting": "[3]", "value": "increases endothelial cell migration"}]}]}
